{
  "source": "paper PMC7604486",
  "target": "mouse Rae1–Nup98^GLEBS complex (tags removed) (mouse) (UniProt Q8C570)",
  "experiment": "SEC",
  "data": [
    {"substance": "MHV-68 ORF10 (wild type, full-length, no tag) (natural protein)", "values": [
      {"measurement": "stoichiometry N", "result": 1}
    ]}
  ]
}
